In PMC9596371 (Nature Chemical Biology, 2022):
Changes are numbered by the printed parent chain.

B1: COV2-2143 IgG (antibody, V domains shown)
VH: EVQLVESGGGLVQPGGSLRLSCAASGFTVSSNYMSWVRQAPGKGLEWVSVIYSAGSTYYADSVKGRFSISRDKSKNTLYLQMNSLRAEDTAVYYCAKEGGSGSLRYYYYGMDVWGQGTTVTVSS
VL: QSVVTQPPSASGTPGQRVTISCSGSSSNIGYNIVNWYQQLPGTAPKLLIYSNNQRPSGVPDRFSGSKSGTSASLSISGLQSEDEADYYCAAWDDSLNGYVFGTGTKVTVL
B2: COV2-2143 Fab (Fab, V domains shown)
VH: B1 VH
VL: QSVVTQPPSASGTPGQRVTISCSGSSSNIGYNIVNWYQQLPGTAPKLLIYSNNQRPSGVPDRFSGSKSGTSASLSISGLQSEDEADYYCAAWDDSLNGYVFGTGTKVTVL
B3: COVA2-14 IgG (antibody, V domains shown)
VH: QVQLVQSGAEVKKPGSSVKVSCKASGGTFSSYAIIWVRQAPGQGLEWMGGIIPIFGTANYAQKFQGRVTITTDESTSTAYMELSSLRSEDTAVYYCARVRYYDSSGYYEDYWGQGTLVTVSS
VL: EIVLTQSPATLSLSPGERATLSCRASQSVSSYLAWYQQEPGQAPRLLIYDASNRATGIPARFSGSGSGTDFTLTISSLEPEDFAVYYCQQRSNWPPMYTFGQGTKVEIK
B4: COVA2-14 Fab (Fab, V domains shown)
VH: B3 VH
VL: B3 VL
B5: COVA2-18 IgG (antibody, V domains shown)
VH: B3 VH with Q1E, I35S, A58T, R100Y, Y101S, E109L, D110E, L117R
VL: B3 VL with E39K, M97S, Y98I, K105R, V106L
B6: COV2-2449 IgG (antibody, V domains shown)
VH: QVQLVESGGGVVQPGRSLRLSCATSGFTFSSFALHWVRQAPGKGLEWVTVISDDGNNKYYVDSVKGRFTISRDNSKNTLFLQMNSLRVEDTAIYYCARASYNSNWSIGEYFRDWGQGTLVTVSS
VL: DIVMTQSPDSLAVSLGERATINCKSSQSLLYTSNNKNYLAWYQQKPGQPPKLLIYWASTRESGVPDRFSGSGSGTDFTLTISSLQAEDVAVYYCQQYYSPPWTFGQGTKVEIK
B7: COV2-2449 Fab (Fab, V domains shown)
VH: B6 VH
VL: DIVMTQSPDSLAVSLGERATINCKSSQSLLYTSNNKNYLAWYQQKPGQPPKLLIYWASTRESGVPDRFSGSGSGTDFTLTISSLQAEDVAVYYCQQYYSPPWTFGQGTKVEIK
B8: CV27 IgG (antibody, V domains shown)
VH: QVQLVESGGGVVQPGRSLRLSCAASGFTFSSYAMHWVRQAPGKGLEWVALISYDGSNKYYADSVKGRFTISRDNSKNTLYLQMNSLRAEDTAVYYCARSFGGSYYYGMDVWGQGTTVTVSS
VL: QSALTQPASVSGSPGQSITISCTGTSSDVGGYNYVSWYQQHPGKAPKLMIYDVSNRPSGVSNRFSGSKSGNTASLTISGLQAEDEADYYCSSYTSSSTPYVFGTGTKVTVL
B9: CV27 Fab (Fab, V domains shown)
VH: B8 VH
VL: B8 VL
B10: COV2-2147 IgG (antibody, V domains shown)
VH: B8 VH with V5A, L50V, F100T, G101S
VL: QSALTQPASVSGSPGQSITISCTGTSSDVGDYNYVSWYQQHPGKAPKLMIYDVSNRPSGVSNRFSGSKSGNTASLTISGLQAEDEAEYYCSSYTSSSTLLYVFGTGTKVTVL

Tests used:
[1] = target: T1, SARS-CoV-2 spike protein (FL-GCN4-Avi-His, 2P, biotinylated trimer) (SARS-CoV-2, Wuhan-Hu-1 (strain named …, UniProt P0DTC2, stabilised, biotin on the Avi tag)); assay: ELISA; settings: both partners purified
[2] = target: T1, SARS-CoV-2 spike protein …; assay: BLI; settings: both partners purified

Row | Binder | binding result [1] | binding result [2]
1 | B1 | binds | 
2 | B2 |  | binds
3 | B3 |  | binds
4 | B4 |  | binds
5 | B5 |  | binds
6 | B6 | binds | 
7 | B7 |  | binds
8 | B8 | binds | 
9 | B9 |  | binds
10 | B10 |  | binds
